From US20240350630A1

Assays:
[1] = molecular target: rBCMA conjugated with AF647 (UniProt Q02223); experiment: flow cytometry of primary T cells transduced with the CAR, stained with labelled recombinant BCMA (sheet: rBCMA-APC, APC-A; text: BCMA-AF647 at 1 ug/ml); untransduced T cells (UT) give 0.61 in the same gate
[2] = molecular target: recombinant human BCMA (Acro Biosystems) (human) (UniProt Q02223); experiment: SPR, scFv-Fc captured by anti-human IgG Fc on a CM5 chip, BCMA as analyte, global fit
[3] = molecular target: recombinant human BCMA (Acro Biosystems) (human) (UniProt Q02223); experiment: SPR: scFv-Fc captured on an anti-human IgG Fc CM5 chip (sheet: ligand 20nM), recombinant human BCMA as analyte, 1:1 Binding model, 25 C

% BCMA CAR+ cells [1] [%] | Kd [2] [pM] | Kd [3] [pM] | koff [3] [s⁻¹] | kon [3] [M⁻¹ s⁻¹] | Binder
99.6 | – | – | – | – | 15B2 (protein, part only; not given: hinge, transmembrane and signalling domains, part only) CAR chain, part: EVQLVESGGGLVKPGGSLRLSCAASGFTFRSYSMNWVRQAPGKGLEWVSSISGSSNYIYYADSVKGRFTISRDNAKNSLYLQMNSLRAEDTAVYYCARGGNYYVEYFQYWGQGTLVTVSSGGGGSGGGGSGGGGSGGGGSEIVLTQSPGTLSLSPGERATLSCRASQYISSNYLAWYQQKPGQAPRLLIYGASNRATGIPDRFSGSGSGTDFTLTISRLEPEDFAVYYCQQYGSSPITFGQGTKLEIK
– | 370 | 371 | 0.000673 | 1.81e+06 | L15 scFv-Fc (Fc fusion, not shown: a dimerising Fc or GST; small tags and cut ends) scFv: EVQLVESGGGLVKPGGSLRLSCAASGFTFSSYSMNWVRQAPGKGLEWVSSISGQSNYIYYADSVKGRFTISRDNAKNSLYLQMNSLRAEDTAVYYCARGGNYFVEYFQYWGQGTLVTVSSGSGGGGSGGGGSGGGGSGGGGSEIVLTQSPGTLSLSPGERATLSCRASQYISSNNLAWYQQKPGQAPRLLIYGASNRATGIPDRFSGSGSGTDFTLTISRLEPEDFAVYYCQQYADSPITFGQGTKLEIK
– | 440 | 355 | 0.00486 | 1.37e+07 | 7A8.11 scFv-Fc (Fc fusion, not shown: a dimerising Fc or GST; small tags and cut ends) scFv: EVQLVESGGGLVQPGGSLRLSCEASGFTFSSFWMNWVRQAPGKGLEWVANIKEDGSEKYYVDSVKGRFTISRDNAKNSLYLQMNSLRVEDTAVYYCARALDYYGMDVWGQGTTVTVSSGGGGSGGGGSGGGGSGGGGSYIVMTQTPLSLPVTPGEPASISCRSSQSLLDSDDGNTYLDWYLQKPGQSPQLLIYTLSYRASGVPDRFSGSGSGTDFTLKISRVEAEDVGVYYCMQRIEFPSYTFGQGTKLEIK
